In test [1] the target is hemagglutinin of H2N2 A/Singapore/1/57 (influenza virus H2N2 A/Singapore/1/57, UniProt Q67333 16-562). As to the kind of experiment: Western blot; virus, eggs. For orientation: In western blotting, separated proteins are transferred to a membrane and probed.
The target in test [2] is hemagglutinin of H4N6 A/Duck/Czechoslovakia/56 (influenza virus H4N6 …, UniProt P19696 17-564). As to the kind of experiment: Western blot; virus, eggs.
Test [3] deals with hemagglutinin of H7N3/A/Turkey/Oregon/71 (influenza virus H7N3 A/Turkey/Oregon/71, UniProt P03458 19-560). In words: Western blot; virus, eggs.
Test [4] concerns the target hemagglutinin of H8N4 A/Turkey/Ontario/6118/68 (influenza virus H8N4 …, UniProt P03456 16-565). In words: Western blot; virus, eggs.
For test [5], the target named is hemagglutinin of H9N2 A/Turkey/Wisconsin/1/66 (influenza virus H9N2 …, UniProt P03457 19-560). In words: Western blot; virus, eggs.
Test [6] deals with hemagglutinin of H13N6 A/Gull/Maryland/704/77 (influenza virus H13N6 …, UniProt P13103 19-566). As to the kind of experiment: Western blot; virus, eggs.
Test [7] concerns the target hemagglutinin of H12N5 A/Duck/Alberta/60/76 (influenza virus H12N5 …, UniProt P03446 17-564). As to the kind of experiment: Western blot; virus, MDCK cells.
Test [8] has as its target T1, hemagglutinin of H3N2 A/Brisbane/10/2007 (influenza virus H3N2 A/Brisbane/10/2007).
T1 construct: rHA (BEI Resources)
As to the kind of experiment: dot blot, 4M urea; rHA (BEI Res.), dot 6.

Test [9] addresses T2, hemagglutinin of H1N1 A/Puerto Rico/8/1934 (influenza virus H1N1 A/Puerto …, UniProt P03452 18-528). As to the kind of experiment: dot blot, 4M urea; rHA (Prot. Sc.), dot 1.
Test [10] deals with hemagglutinin of H3N2 A/Wisconsin/67/2005 (influenza virus H3N2 A/Wisconsin/67/2005). In words: dot blot, 4M urea; rHA (Prot. Sc.), dot 4.
In test [11] the target is hemagglutinin of B/Brisbane/60/2008 (influenza virus B/Brisbane/60/2008). As to the kind of experiment: dot blot, 4M urea; rHA (Prot. Sc.), dot 11.
The target of test [12] is T3, hemagglutinin of H1N1 A/California/06/2008 (influenza virus H1N1 …). As to the kind of experiment: dot blot, 4M urea; rHA (Imm. Techn.), dot 2.
Test [13] deals with T4, hemagglutinin of H3N2 A/Hong Kong/8/1968 (influenza virus H3N2 A/Hong Kong/8/1968). As to the kind of experiment: dot blot, 4M urea; rHA (Imm. Techn.), dot 5.
The target of test [14] is T2, hemagglutinin of H1N1 A/Puerto …. As to the kind of experiment: dot blot, 4M urea; virus (HEK293/NRC), dot 17.
The target in test [15] is T4, hemagglutinin of H3N2 A/Hong Kong/8/1968. In words: dot blot, 4M urea; virus (HEK293/NRC), dot 19.
Test [16] addresses T3, hemagglutinin of H1N1 …. As to the kind of experiment: dot blot, 4M urea; inactivated virus (egg/NIBSC), dot 12.
Test [17] addresses hemagglutinin of H3N2 A/Texas/50/2012 (influenza virus H3N2 A/Texas/50/2012). In words: dot blot, 4M urea; inactivated virus (egg/NIBSC), dot 13.
Test [18] has as its target hemagglutinin of B/Massachusetts/2/2012 (influenza virus B/Massachusetts/2/2012). In words: dot blot, 4M urea; inactivated virus (egg/NIBSC), dot 14.

Numbering of substitutions follows the chain as printed.

B1: F211-10A9 (antibody, V domains shown)
VH: QIQLQQSGPELVKPGAPVKISCKASGYTFTDYYIHWVNQRPGQGLEWIGYIYPGNGHTVYNQKFKVRATLTADNPSSTAYLQLNSLTSEDSGVYFCAYDLFNYWGQGTLVTVSA
VL: DIVMTQSPSSLAMSVGQKVTMSCKSSQSLLNSDTQKNFLAWYQQKPGQSPKILVYFASTKESGVPDRFIGSGSGTDFTLTITSVQAEDLADYFCQQYYSIPLTFGAGTKLELK
With B1, the binding result in test [1], in test [2], in test [3], in test [4], in [5] and in test [6] was “binds” each time. In addition, the binding result in [7] is recorded as “binds”. For the same molecule, the signal intensity in test [8] was 11500 arbitrary fluorescent units; in test [9] it was 2520 arbitrary fluorescent units; in test [10], 791 arbitrary fluorescent units; in [11], 25800 arbitrary fluorescent units; in test [12] it was 2780 arbitrary fluorescent units; in [13] it was 5670 arbitrary fluorescent units. Also, the signal intensity was 7450 arbitrary fluorescent units in test [14]; 319 arbitrary fluorescent units in test [15]; 227 arbitrary fluorescent units in test [16]; 412 arbitrary fluorescent units in [17]; 240 arbitrary fluorescent units in [18].

B2: F211-11H12 (antibody, V domains shown)
VH: DVQLQESGPGLVKPSQSLSLTCSVTGYSITSDYYWNWIRQFPGNKLEWMAYIGYDGTKNYNPSLKNRISITRDTSKNQFFLKLNSVTTDDTATYYCTRDRANWDDYFDYWGQGTTLTVSS
VL: DIVMSQSPSSLAVSVGEKVTMSCKSSQSLLNSRNQKNHLAWYQQKPGQSPKLLIYWASTRESGVPDRFTGDGSGTDFTLTISSVKAEDLAVYYCQQYYTYRTFGGGTKLEIK
In the case of B2, the binding result in test [2] and in [3] was “no binding (tested: 2µg/ml)” in each case. Also, the signal intensity in test [8] is 280 arbitrary fluorescent units; in test [9] it was 20300 arbitrary fluorescent units; in test [10] it was 176 arbitrary fluorescent units; in test [11], 38500 arbitrary fluorescent units; in [12], 5120 arbitrary fluorescent units; in test [13], 464 arbitrary fluorescent units. The signal intensity in test [14] is 6540 arbitrary fluorescent units; in test [15], 201 arbitrary fluorescent units; in [16] it was 14400 arbitrary fluorescent units; in test [17], 201 arbitrary fluorescent units; in test [18], 9930 arbitrary fluorescent units.

B3: F211-9D1 (antibody, V domains shown)
VH: B2 VH with T57S
VL: B2 VL with T69S
As to B3, the signal intensity is 362 arbitrary fluorescent units in [8]; 21400 arbitrary fluorescent units in [9]; 70 arbitrary fluorescent units in test [10]; 41100 arbitrary fluorescent units in test [11]; 5780 arbitrary fluorescent units in test [12]; 651 arbitrary fluorescent units in [13]. The signal intensity is 7810 arbitrary fluorescent units in test [14]; 108 arbitrary fluorescent units in test [15]; 17400 arbitrary fluorescent units in [16]; 238 arbitrary fluorescent units in test [17]; 10500 arbitrary fluorescent units in test [18].

These data come from patent US20190352376A1 (NATIONAL RESEARCH COUNCIL OF CANADA, published 2019).
